Values joined by “and” are separate entries in the source; they are usually repeats but may differ in a detail not shown here. Identical values can stand only once.
Legend:
Asp186 = Asp186 (UniProt position 186, DGFRFDAAKHM); test: kinetics; details: 70 °C; mixture of citrate, phosphate and glycine buffers (100 mM each); Enzyme turning over starch and maltose (activity assay); 0.5 U/mL purified enzyme
Glu216 = Glu216 (UniProt position 216, GIFLAEIWAEA); test: kinetics; details: 70 °C; mixture of citrate, phosphate and glycine buffers (100 mM each); Enzyme turning over starch and maltose (activity assay); 0.5 U/mL purified enzyme

Substance | pKa (Asp186) | pKa (Glu216)
4-alpha-glucanotransferase (TmGTase), wild type (Thermotoga maritima) | 4.4 ± 0.1 | 8.9 ± 0.1
4-alpha-glucanotransferase (TmGTase) W131G (Thermotoga maritima; W131G) | 4.7 ± 0.1 and 4.5 ± 0.09 | 8.9 ± 0.1
4-alpha-glucanotransferase (TmGTase) truncated loop variant (Thermotoga maritima; del120-124;del128-131) | 4.6 ± 0.1 | 8.9 ± 0.1

Source: paper PMC10480278
